Source: patent US8846861 (dated 2014)
Blank lines part the entries; values can stand above or below the binder they belong to. Non-standard residues stand in square brackets, D forms with d. No end group written: not given here. ANA = not defined here

Assays:
[1] = biological target: ScFv anti CEA-CPG2 fusion protein (Pseudomonas, UniProt P06621 23-415); assay: cell-based or functional assay
[2] = biological target: T1, carcino-embryonic antigen (CEA) (human, UniProt P06731 35-685); assay: flow cytometry on CCL 229 (LoVo) CEA expressing cells
T1 construct: whole, on cells; The legends print the cell line as CCI-229; also called surface protein CEA; CEA surface antigen
T1 sequence (looked up): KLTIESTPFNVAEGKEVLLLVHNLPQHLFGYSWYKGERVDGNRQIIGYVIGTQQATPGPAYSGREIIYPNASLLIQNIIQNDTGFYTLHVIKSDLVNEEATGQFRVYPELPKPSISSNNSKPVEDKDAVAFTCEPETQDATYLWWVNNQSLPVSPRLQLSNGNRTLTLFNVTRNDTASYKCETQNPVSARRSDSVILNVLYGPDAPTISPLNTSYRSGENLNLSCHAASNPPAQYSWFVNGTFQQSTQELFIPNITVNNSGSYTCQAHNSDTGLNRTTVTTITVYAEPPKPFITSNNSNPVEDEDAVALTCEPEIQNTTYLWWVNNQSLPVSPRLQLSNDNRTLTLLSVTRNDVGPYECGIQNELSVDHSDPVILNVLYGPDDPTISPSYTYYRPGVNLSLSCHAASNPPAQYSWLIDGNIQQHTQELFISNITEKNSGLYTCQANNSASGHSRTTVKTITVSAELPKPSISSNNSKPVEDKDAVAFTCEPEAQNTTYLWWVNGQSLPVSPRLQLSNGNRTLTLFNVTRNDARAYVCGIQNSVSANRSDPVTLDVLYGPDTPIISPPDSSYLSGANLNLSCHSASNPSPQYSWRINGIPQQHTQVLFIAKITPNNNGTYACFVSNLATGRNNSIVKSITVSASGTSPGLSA
Procedure: A study to look at antibodies generated in sheep to CEA and the ScFv anti CEA-CPG2 Fusion protein was carried out with analysis using flow cytometry. Measurement by Flow Cytometry of Binding Capability of scFv Anti-CEA-CPG2 Using CEA Expressing Cells. Materials: Cells Lines: CRL 1573—control cell line, CCL 229 (LoVo)—CEA expressing cell line Antibodies/Conjugates: CPG2-PE (Phycoerythrin), CPG2 100 U/ml 1:100 dilution of 100 U conjugated ScFv anti-CEA-CPG2-PE UCL, 40-50 U/ml, 0.71 mg/ml protein 2.5 µg/ml in buffer containing BSA Sheep anti-CEA-PE, CF 1110-PE; Stock at 670 µg/ml. Mouse anti human CEA UCL at 3.9 mg/ml 2.5 µg/ml in buffer containing BSA Goat anti-Mouse-PE Southern Biotech 1050-09 L2806-XH69Z kappa chain specific at 0.25 mg/ml used at 1 µg/ml 4.5 ml polystyrene tubes, PBS azide, BSA, PBS+0.5% Formaldehyde (Polysciences #18814), Propidium Iodine (Orpegen at 100 mg/ml) Centrifuge Eppendorf 5810R set to 250G, 5 mins, 4° C. Coulter XL flow cytometer Method: Cultured cells were both used at 2×10^5 cells per tube, cells in tubes were prepared to contain the following 1. Nothing added, auto fluorescence tested 2. Propidium Iodine at a final concentration of 10 µg/ml 3. CPG2-PE 4. ScFv anti CEA-CPG2-PE 5. Sheep anti CEA-PE 6. Mouse anti CEA/anti Mouse-PE Cells were spun down and 100 µl of antibody solution was added to respective tube. […]

IC50, inhibition assay of CPG2 activity (methotrexate hydrolysis) [1]: 88.5 µM
B1: CP006 (peptide)
peptide: [ANA]-Glu
modifications: reading uncertain; also: printed as ANA-Glu

B2: CPG2-PE (Phycoerythrin) (enzyme, Pseudomonas, UniProt P06621 23-415, looked up)
chain: ALAQKRDNVLFQAATDEQPAVIKTLEKLVNIETGTGDAEGIAAAGNFLEAELKNLGFTVTRSKSAGLVVGDNIVGKIKGRGGKNLLLMSHMDTVYLKGILAKAPFRVEGDKAYGPGIADDKGGNAVILHTLKLLKEYGVRDYGTITVLFNTDEEKGSFGSRDLIQEEAKLADYVLSFEPTSAGDEKLSLGTSGIAYVQVNITGKASHAGAAPELGVNALVEASDLVLRTMNIDDKAKNLRFNWTIAKAGNVSNIIPASATLNADVRYARNEDFDAAMKTLEERAQQKKLPEADVKVIVTRGRPAFNAGEGGKKLVDKAVAYYKEAGGTLGVEERTGGGTDAAYAALSGKPVIESLGLPGFGYHSDKAEYVDISAIPRRLYMAARLIMDLGAGK
modifications: conjugated to phycoerythrin (PE)
notes: PE-labelled enzyme without the scFv, used as a control in flow cytometry; also called CPG2 control; carboxypeptidase G2
binding result [2]: no binding (tested: CPG2 100 U/ml 1:100 dilution)
